Results reported in publication PMC9482650, “Quantitative fragmentomics allow affinity mapping of interactomes” (Nature Communications, 2022).

Tests used:
Experiment in all cases: holdup assay
Design in all cases: key: below the threshold = too weak to quantify, mostly under pKd 3.1 to 4
Conditions in all cases: plain residues with an end cap or a label only (N-terminal biotin on a linker: ttds)
PARD3B_2, Q8TEW8 = target: PARD3B_2, Q8TEW8
MAGI3_6, Q5TCQ9 = target: MAGI3_6, Q5TCQ9
PTPN4, P29074 = target: T1, PTPN4, P29074
T1 sequence (P29074 512-599, limits assumed, looked up): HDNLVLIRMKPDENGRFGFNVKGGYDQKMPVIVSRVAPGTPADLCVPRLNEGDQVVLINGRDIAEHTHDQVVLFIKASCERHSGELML

RGS12, O14924 = target: T2, RGS12, O14924
T2 sequence (O14924 17-108, limits assumed, looked up): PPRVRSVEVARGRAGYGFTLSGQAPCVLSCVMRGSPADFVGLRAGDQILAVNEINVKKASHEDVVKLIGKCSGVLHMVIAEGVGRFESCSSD

SIPA1L3, O60292 = target: T3, SIPA1L3, O60292
T3 sequence (O60292 961-1052, limits assumed, looked up): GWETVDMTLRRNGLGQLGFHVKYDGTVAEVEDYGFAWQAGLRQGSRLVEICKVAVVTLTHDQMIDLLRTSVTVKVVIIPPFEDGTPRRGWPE

DLG2_1, Q15700 = target: DLG2_1, Q15700
SHROOM3, Q8TF72 = target: T4, SHROOM3, Q8TF72
T4 sequence (Q8TF72 20-120, limits assumed, looked up): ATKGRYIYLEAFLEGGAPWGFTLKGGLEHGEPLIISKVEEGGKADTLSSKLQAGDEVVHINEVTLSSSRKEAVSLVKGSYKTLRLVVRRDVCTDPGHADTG

RIMS1, Q86UR5 = target: RIMS1, Q86UR5
Chain of RIMS1, Q86UR5 (Q86UR5 584-692): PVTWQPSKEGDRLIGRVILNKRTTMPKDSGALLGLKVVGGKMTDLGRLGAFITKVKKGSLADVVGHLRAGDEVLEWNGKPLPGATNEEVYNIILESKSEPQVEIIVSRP

MPDZ_13, O75970 = target: T5, MPDZ_13, O75970
T5 sequence (O75970 1982-2070, limits assumed, looked up): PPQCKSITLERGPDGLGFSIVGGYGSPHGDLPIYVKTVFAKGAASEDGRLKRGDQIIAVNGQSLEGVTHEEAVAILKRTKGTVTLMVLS

PDLIM3, Q53GG5 = target: T6, PDLIM3, Q53GG5
T6 sequence (Q53GG5 1-94, limits assumed, looked up): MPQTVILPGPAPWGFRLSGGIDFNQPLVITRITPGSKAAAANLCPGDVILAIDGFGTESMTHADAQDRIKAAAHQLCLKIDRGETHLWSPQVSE

PDZD2_3, O15018 = target: T7, PDZD2_3, O15018
T7 sequence (O15018 581-682, limits assumed, looked up): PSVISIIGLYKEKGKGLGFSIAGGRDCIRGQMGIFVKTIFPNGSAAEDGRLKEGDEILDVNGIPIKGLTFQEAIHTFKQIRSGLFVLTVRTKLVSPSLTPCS

PARD6G, Q9BYG4 = target: T8, PARD6G, Q9BYG4
T8 sequence (Q9BYG4 153-261, limits assumed, looked up): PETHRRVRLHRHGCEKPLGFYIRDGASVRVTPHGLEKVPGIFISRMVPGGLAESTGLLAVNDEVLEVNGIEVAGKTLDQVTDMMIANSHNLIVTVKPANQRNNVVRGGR

MLLT4, P55196 = target: T9, MLLT4, P55196
T9 sequence (P55196 1002-1103, limits assumed, looked up): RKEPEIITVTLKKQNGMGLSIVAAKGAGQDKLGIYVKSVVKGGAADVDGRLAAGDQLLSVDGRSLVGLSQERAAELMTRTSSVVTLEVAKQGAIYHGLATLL

MPDZ_11, O75970 = target: T10, MPDZ_11, O75970
T10 sequence (O75970 1720-1817, limits assumed, looked up): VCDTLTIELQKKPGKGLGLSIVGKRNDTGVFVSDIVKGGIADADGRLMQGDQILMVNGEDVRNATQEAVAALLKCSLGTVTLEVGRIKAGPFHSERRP

PDZRN4_2, Q6ZMN7 = target: PDZRN4_2, Q6ZMN7
Chain of PDZRN4_2, Q6ZMN7 (Q6ZMN7 389-498): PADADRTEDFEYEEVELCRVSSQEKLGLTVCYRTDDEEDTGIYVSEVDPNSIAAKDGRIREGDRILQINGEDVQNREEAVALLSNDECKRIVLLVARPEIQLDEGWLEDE

NHERF1_1, O14745 = target: T11, NHERF1_1, O14745
T11 sequence (O14745 9-104, limits assumed, looked up): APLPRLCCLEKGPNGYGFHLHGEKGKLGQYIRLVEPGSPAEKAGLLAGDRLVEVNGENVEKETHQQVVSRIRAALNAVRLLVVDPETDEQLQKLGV

MAGI3_3, Q5TCQ9 = target: MAGI3_3, Q5TCQ9
Chain of MAGI3_3, Q5TCQ9 (Q5TCQ9 572-655): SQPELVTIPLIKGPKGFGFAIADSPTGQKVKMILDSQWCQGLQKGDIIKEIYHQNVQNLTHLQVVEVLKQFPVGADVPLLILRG

RGS3, P49796-9 = target: RGS3, P49796-9
Chain of RGS3, P49796-9 (P49796 other isoform, or with tags, fused parts or gaps): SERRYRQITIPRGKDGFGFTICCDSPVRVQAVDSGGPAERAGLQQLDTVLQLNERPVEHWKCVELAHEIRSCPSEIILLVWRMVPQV

MPDZ_3, O75970 = target: T12, MPDZ_3, O75970
T12 sequence (O75970 372-473, limits assumed, looked up): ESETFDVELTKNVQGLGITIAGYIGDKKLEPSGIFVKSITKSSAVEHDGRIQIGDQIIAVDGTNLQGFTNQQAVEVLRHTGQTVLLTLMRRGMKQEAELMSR

Inadl_7, Q8NI35 = target: Inadl_7, Q8NI35
Chain of Inadl_7, Q8NI35 (Q8NI35 1219-1332): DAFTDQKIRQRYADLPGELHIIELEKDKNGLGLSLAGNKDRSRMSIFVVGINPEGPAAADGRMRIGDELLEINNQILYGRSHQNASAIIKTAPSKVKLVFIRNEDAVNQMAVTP

NHERF2_1, Q15599 = target: NHERF2_1, Q15599
Chain of NHERF2_1, Q15599 (Q15599 9-91): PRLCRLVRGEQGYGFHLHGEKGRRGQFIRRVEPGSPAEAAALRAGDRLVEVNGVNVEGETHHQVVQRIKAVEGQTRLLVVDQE

PARD3B_3, Q8TEW8 = target: PARD3B_3, Q8TEW8
Chain of PARD3B_3, Q8TEW8 (Q8TEW8 490-594): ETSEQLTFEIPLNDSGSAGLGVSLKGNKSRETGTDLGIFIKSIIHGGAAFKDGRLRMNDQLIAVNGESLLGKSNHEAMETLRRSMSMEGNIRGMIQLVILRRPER

PDZD11, Q5EBL8 = target: T13, PDZD11, Q5EBL8
T13 sequence (Q5EBL8 42-139, limits assumed, looked up): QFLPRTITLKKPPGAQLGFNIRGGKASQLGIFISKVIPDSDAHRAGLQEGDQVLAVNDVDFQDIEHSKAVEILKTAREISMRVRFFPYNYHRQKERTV

RIMS2, Q9UQ26 = target: RIMS2, Q9UQ26
Chain of RIMS2, Q9UQ26 (Q9UQ26 637-758): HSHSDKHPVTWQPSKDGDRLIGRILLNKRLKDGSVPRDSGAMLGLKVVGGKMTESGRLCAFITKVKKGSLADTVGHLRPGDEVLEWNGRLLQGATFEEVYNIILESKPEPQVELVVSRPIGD

Chain of PARD3B_2, Q8TEW8 (Q8TEW8 376-471): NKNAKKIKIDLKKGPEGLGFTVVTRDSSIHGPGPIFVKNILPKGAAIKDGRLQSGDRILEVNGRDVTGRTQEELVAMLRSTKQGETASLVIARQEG
Chain of MAGI3_6, Q5TCQ9 (Q5TCQ9 1014-1103): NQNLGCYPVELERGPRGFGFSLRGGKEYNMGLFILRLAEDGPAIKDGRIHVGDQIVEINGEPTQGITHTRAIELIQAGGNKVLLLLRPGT

- pKd (PARD3B_2, Q8TEW8): 3.74
- pKd (MAGI3_6, Q5TCQ9): below the threshold
- pKd (PTPN4, P29074): 3.83
- pKd (RGS12, O14924): below the threshold
- pKd (SIPA1L3, O60292): below the threshold
- pKd (DLG2_1, Q15700): 4.34
- pKd (SHROOM3, Q8TF72): below the threshold
- pKd (RIMS1, Q86UR5): below the threshold
- pKd (MPDZ_13, O75970): below the threshold
- pKd (PDLIM3, Q53GG5): below the threshold
- pKd (PDZD2_3, O15018): below the threshold
- pKd (PARD6G, Q9BYG4): below the threshold
- pKd (MLLT4, P55196): below the threshold
- pKd (MPDZ_11, O75970): below the threshold
- pKd (PDZRN4_2, Q6ZMN7): below the threshold
- pKd (NHERF1_1, O14745): below the threshold
- pKd (MAGI3_3, Q5TCQ9): below the threshold
- pKd (RGS3, P49796-9): below the threshold
- pKd (MPDZ_3, O75970): below the threshold
- pKd (Inadl_7, Q8NI35): 4.36
- pKd (NHERF2_1, Q15599): below the threshold
- pKd (PARD3B_3, Q8TEW8): below the threshold
- pKd (PDZD11, Q5EBL8): below the threshold
- pKd (RIMS2, Q9UQ26): below the threshold
Binder: PSRDRKETSI [RALBP1, Q15311]
